# Reference: patent EP4678184A2 (CREATE Medicines, Inc., dated 2026)
# B1: CD5-CAR (anti-CD5 chimeric antigen receptor on electroporated CD14+ monocytes, Example 15) (receptor, not shown: small tags and cut ends)
# chain: EIQLVQSGGGLVKPGGSVRISCAASGYTFTNYGMNWVRQAPGKGLEWMGWINTHTGEPTYADSFKGRFTFSLDDSKNTAYLQINSLRAEDTAVYFCTRRGYDWYFDVWGQGTTVTVSSGGGGSGGGGSGGGGSDIQMTQSPSSLSASVGDRVTITCRASQDINSYLSWFQQKPGKAPKTLIYRANRLESGVPSRFSGSGSGTDYTLTISSLQYEDFGIYYCQQYDESPWTFGGGTKLEIK
# notes: also called CD5-CAR monocytes
# Biological target: T1, Alexa488 conjugated human CD5 protein (human, UniProt P06127 25-372, limits assumed, Alexa488 conjugated (site not stated))
# T1 sequence (looked up): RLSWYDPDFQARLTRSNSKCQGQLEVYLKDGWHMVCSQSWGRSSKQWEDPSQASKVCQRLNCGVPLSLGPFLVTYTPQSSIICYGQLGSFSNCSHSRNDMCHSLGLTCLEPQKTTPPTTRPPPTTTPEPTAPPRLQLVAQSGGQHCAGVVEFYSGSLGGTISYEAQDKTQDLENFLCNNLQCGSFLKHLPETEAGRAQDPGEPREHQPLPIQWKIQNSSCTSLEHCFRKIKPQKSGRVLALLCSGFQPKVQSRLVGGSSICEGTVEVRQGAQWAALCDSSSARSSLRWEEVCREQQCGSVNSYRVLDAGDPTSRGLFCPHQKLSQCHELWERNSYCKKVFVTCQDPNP
# Assay: flow cytometry, labelled soluble CD5 on electroporated CD14+ monocytes, 24, 48 and 72 hours post thaw
binder,measurement,value
B1,binding result,binds
